Experimental data from patent publication US5434068.

Tested on: BglII restriction endonuclease (R.BglII) (Bacillus globigii)
Test: cleavage_in_vitro
Details: nonspecific nicking test; 80 units, 4 h, 37 C, 10 mM MgCl2

Substance: phiX174 RFI DNA
- activity (% converted to RFII): 10
